Laboratory results published in patent publication CN115925945A (GUANGDONG FEIPENG PHARMACEUTICAL CO LTD, dated 2023).

Biological target: T1, 人TIGIT (全长, 表达于CHO工程细胞CHO-hTIGIT) (human, UniProt Q495A1 22-244)
T1 construct: whole, on cells
T1 sequence (looked up): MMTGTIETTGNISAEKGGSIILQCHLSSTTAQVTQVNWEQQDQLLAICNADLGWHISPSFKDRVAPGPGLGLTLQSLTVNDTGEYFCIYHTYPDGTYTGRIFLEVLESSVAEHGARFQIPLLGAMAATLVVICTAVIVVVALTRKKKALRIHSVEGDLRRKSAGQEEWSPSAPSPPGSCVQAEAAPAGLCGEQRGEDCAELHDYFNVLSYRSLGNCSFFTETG
Assay: in vitro binding activity after stress tests (acid, base, freeze-thaw, high temperature)

binding result: binds
B1: 抗TIGIT人源化抗体15H10L3 (R0774), hIgG1亚型 (antibody, V domains shown)
VH: QVQLVQSGAEVKKPGSSVKVSCKASGYSFTSYWMNWVRQAPGQGLEWIGMIRPSDSETRLNQMFKDRVTITVDKSTSTAYMELSSLRSEDTAVYYCAGIHDYGHGAYWGQGTLVTVSS
VL: DIQMTQSPSSLSASVGDRVTITCRASENIYSNLAWYQQKPGKSPKLLVYAASHLPDGVPSRFSGSGSGTDYSLTISSLQPEDFATYYCQHFWGTPRTFGQGTKLEIKR
notes: Full-length chains printed for R0774 (hIgG1 with K214R/D356E/L358M, human kappa); Humanized from TIGIT-5 murine mAb; also called 15H10L3-hIgG1
